Results as given in patent US20150010589A1.

How the values were obtained:
[1] = target: soluble collagen type I (pepsin-digested, non-fibrillar, triple helical; BD Biosciences) (human) (UniProt P02452); assay: SPR, saliva injected over immobilized collagen type I, 120 sec at 20 µl/min
[2] = target: soluble collagen type III (pepsin-digested, non-fibrillar; BD Biosciences) (human) (UniProt P02461); assay: SPR, saliva injected over immobilized collagen type III, 120 sec at 20 µl/min
[3] = target: horse tendon insoluble fibrillar Horm collagen (Chrono-Log), collagen I (95%) and III (5%) (horse); assay: cell-based or functional assay
[4] = target: collagen-related peptide (CRP) GCO-(GPO)10-GCOG-NH2, cross-linked; assay: SPR, Aegyptin over immobilized cross-linked (GPO)10 peptide, two-state model; Kd1
[5] = target: collagen-related peptide (CRP) GCO-(GPO)10-GCOG-NH2, cross-linked; assay: SPR, Aegyptin over immobilized cross-linked (GPO)10 peptide, two-state model
[6] = target: collagen-related peptide (CRP) GCO-(GPO)10-GCOG-NH2, cross-linked; assay: SPR, Aegyptin over immobilized cross-linked (GPO)10 peptide, two-state model; Ka1
[7] = target: collagen-related peptide (CRP) GCO-(GPO)10-GCOG-NH2, cross-linked; assay: SPR, Aegyptin over immobilized cross-linked (GPO)10, two-state binding model (the table prints 5.101 µM)

Sequence of soluble collagen type III (pepsin-digested, non-fibrillar; BD Biosciences) (human) (P02461 168-1196 limits assumed): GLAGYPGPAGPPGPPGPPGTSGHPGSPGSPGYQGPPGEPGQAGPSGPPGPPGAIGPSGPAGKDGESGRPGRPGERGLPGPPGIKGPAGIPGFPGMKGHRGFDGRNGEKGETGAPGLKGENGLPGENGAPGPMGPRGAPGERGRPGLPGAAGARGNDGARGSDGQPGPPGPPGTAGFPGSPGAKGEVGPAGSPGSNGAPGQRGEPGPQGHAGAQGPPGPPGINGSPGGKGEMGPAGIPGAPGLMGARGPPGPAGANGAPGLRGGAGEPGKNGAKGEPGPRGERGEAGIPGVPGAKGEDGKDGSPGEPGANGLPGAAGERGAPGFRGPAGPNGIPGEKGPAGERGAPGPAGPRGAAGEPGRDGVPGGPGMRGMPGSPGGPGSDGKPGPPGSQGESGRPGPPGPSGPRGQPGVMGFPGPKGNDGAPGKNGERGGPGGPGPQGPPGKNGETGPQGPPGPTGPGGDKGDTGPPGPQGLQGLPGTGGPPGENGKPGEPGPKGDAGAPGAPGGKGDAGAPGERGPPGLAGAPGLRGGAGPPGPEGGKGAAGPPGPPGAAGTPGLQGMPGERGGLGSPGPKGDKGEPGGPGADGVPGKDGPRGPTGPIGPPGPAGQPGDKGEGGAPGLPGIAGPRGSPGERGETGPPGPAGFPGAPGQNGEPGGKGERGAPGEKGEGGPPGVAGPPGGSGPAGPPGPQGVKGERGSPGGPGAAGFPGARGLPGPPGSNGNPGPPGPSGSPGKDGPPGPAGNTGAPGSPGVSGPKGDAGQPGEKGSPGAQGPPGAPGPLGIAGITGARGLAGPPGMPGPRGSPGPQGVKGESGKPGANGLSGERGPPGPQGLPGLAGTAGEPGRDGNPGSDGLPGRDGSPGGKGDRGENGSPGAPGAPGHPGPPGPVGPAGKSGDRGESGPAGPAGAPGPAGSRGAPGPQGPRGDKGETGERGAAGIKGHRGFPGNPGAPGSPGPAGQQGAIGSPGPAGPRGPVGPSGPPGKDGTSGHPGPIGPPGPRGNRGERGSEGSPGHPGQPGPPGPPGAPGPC
Sequence of soluble collagen type I (pepsin-digested, non-fibrillar, triple helical; BD Biosciences) (human) (P02452 179-1192 limits assumed, chain 1 of 2): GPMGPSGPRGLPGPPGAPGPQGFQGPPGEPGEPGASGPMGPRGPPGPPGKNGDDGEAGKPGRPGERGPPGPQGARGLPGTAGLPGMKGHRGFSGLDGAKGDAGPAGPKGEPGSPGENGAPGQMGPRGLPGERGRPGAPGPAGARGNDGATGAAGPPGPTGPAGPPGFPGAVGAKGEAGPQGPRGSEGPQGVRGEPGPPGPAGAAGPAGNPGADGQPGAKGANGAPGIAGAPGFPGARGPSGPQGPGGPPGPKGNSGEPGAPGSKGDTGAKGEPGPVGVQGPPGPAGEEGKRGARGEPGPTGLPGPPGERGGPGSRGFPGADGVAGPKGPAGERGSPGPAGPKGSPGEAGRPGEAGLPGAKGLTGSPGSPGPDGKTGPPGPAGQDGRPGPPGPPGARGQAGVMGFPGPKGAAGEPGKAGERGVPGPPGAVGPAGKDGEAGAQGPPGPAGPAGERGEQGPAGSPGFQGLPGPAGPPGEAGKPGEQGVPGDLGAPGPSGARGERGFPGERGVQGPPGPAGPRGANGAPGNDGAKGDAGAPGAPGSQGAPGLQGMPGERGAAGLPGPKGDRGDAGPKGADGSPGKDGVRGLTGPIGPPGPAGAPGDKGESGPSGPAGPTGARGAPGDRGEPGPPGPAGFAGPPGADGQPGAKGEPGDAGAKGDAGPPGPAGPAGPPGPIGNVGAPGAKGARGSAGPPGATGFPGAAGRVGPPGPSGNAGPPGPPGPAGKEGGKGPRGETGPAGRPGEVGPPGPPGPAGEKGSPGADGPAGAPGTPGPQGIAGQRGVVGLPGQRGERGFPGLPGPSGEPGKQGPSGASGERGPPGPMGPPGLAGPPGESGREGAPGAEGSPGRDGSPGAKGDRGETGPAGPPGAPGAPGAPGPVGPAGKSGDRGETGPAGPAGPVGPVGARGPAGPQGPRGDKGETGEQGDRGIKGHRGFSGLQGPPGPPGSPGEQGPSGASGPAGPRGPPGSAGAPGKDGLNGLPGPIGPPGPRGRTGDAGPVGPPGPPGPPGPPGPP
Sequence of soluble collagen type I (pepsin-digested, non-fibrillar, triple helical; BD Biosciences) (human) (P08123 91-1104 limits assumed, chain 2 of 2, further chain): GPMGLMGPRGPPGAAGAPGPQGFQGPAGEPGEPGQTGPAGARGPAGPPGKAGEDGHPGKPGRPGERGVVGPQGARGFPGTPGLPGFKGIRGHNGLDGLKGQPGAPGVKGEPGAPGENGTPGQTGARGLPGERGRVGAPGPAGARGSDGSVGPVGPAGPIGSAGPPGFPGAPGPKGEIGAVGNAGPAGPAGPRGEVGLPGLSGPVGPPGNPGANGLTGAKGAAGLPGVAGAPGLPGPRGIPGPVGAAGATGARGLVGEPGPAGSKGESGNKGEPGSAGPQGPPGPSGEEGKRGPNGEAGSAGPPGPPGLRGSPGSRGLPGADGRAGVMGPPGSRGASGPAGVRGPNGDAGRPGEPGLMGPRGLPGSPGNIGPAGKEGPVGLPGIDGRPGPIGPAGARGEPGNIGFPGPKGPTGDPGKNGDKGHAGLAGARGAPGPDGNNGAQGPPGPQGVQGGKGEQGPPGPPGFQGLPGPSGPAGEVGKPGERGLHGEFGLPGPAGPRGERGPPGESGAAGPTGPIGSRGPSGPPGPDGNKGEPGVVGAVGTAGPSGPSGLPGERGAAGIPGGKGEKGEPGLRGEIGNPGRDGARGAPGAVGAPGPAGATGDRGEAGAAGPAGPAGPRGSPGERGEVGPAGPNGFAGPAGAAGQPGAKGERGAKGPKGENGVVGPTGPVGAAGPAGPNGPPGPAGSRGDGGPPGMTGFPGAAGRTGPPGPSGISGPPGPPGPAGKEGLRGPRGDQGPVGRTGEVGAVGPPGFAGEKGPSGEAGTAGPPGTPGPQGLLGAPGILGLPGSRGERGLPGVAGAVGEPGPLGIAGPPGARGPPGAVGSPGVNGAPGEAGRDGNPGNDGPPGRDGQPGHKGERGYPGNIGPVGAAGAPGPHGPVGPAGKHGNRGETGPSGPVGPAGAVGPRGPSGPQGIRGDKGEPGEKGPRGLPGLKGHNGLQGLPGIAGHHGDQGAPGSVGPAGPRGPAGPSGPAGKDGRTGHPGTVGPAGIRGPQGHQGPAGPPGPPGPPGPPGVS

**Q.** Which Response (RU) [1] does the source give for “Ae. aegypti saliva (collected by oil-induced salivation)” here?
**A.** 556 RU

**Q.** And the Response (RU) [2]?
**A.** 348 RU

**Q.** “Aegyptin C-terminus-2 (137 aa), truncated form without GEEDA repeats (from UniProt O01949 137-273)” was tested. Which collagen-induced platelet aggregation [3] did it give?
**A.** 3 µM

**Q.** How did the koff [4] turn out when “recombinant Aegyptin (mature protein with C-terminal 6xHis tag, expressed in 293-F cells) (from UniProt O01949 20-273)” was run?
**A.** 1.19 s⁻¹

**Q.** What about the Kd [5] of the same substance?
**A.** 5.1 µM

**Q.** What about the Kd2 [5] of the same substance?
**A.** 0.0289 s⁻¹

**Q.** And the kon [6]?
**A.** 206000 M⁻¹ s⁻¹

**Q.** What about the Kd [7] of the same substance?
**A.** 5.01 µM
